Data as given in article PMC6733935, “A convenient and efficient total solid-phase synthesis of DOTA-functionalized tumor-targeting peptides for PET imaging of cancer” (EJNMMI Research, 2019).
Numbered stars: 1 amine (or outer) side, 2 acyl side, 3 side chain; on linkers, the order of the positions; unused ones are H or OH. Square brackets hold non-standard residues; d marks the D form. Peptide text beside a SMILES is read from it. * marks the point of attachment. DOTA = O=C(O)CN1CCN(CC(=O)O)CCN(CC(=O)*)CCN(CC(=O)O)CC1; Cha = N[C@@H](CC1CCCCC1)C(=O)O; X1 = O=C(CCC(=O)[*:2])CN[*:1]; 4Abz = Nc1ccc(C(=O)O)cc1; Nle = CCCC[C@H](N)C(=O)O

Tests used:
[1] = in vivo; set-up: species or system Balb/c mice; conditions: Balb/c, mouse, iv
Method: Approval for the animal protocol used in this study was obtained from the Institutional Animal Care and Use Committee. Animal studies were conducted according to the international regulations governing the safe and proper use of laboratory animals. In vivo biodistribution were performed on healthy Balb/c mice (n = 3–5 in each group, body weight 19–22 g) at 1 and 2 h after intravenous injection of the HPLC-purified radiopeptide (100 μL, 15–20 μCi, total peptide dose ~ 20 ng) via the lateral tail vein. The mice were sacrificed by cervical dislocation at specified time points and blood samples were withdrawn with a syringe from the heart. Major organs such as lungs, stomach, spleen, pancreas, intestines, liver, kidneys, etc. were isolated, weighed, and radioactivity in each organs and tissues were measured using a γ-scintillation counter. Uptake of radioactivity in the tissues and organs was expressed as the percent injected dose per gram (% ID/g) of tissue/organ, which was calculated by comparison with standard solutions representing 10% of the injected dose per animal. For the clearance studies, radioactivity in the urine with bladder and feces is expressed as the percent of the injected dose per tissue (% ID). Values are expressed as mean ± SD for a group of 3-5 animals at each time point.

[2] = test system: MDA-MB-231 tumors; assay: in vivo; format: in vivo, nude mice; conditions: for Radioactivity in Urine + bladder / Uptake in Blood / Uptake in Intestines (measured without their contents) / Uptake in Kidneys / Uptake in Liver / Uptake in Lungs / Uptake in Muscle / Uptake in Pancreas / Uptake in Spleen / Uptake in Stomach: female, nude, mouse, in vivo; for Uptake in Tumor: nude mice with MDA-MB-231 tumors, mean ± SD, n = 3-5
Method: BN/GRP receptor-positive MDA-MB-231 and PC3 cell lines (American Type Culture Collection, Rockville, USA) were grown as monolayers at 37 °C in a humidified atmosphere containing RPMI-1640 culture media with 10% fetal bovine serum (FBS) in tissue culture flasks. Twenty-four hours prior to conducting the tumor implantation, the media was replaced with RPMI-1640/10% FBS. The cells were grown to 80-90% confluency and harvested by trypsinization. After centrifugation, about 50 million cells were suspended in 1 mL media for implantation into mice. To prepare cells for inoculation, MDA-MB-231 or PC3 cancer cells with media were centrifuged, the media decanted, and the cell pellet was mixed with phosphate-buffered saline (PBS) to reach a concentration of approximately 5 million cells per 100 μL PBS. Human MDA-MB-231 breast cancer xenografts female mouse models were used for in vivo tumor-targeting experiments. For the implantation of tumor xenografts, approximately five million MDA-MB-231 cells in suspension of 100 μL sterile PBS were injected subcutaneously into the left thigh of each mouse. Tumors were allowed to grow for 4-6 weeks by which tumors had reached weights of 200-300 mg. After sufficient growth of tumors, animals were injected with 20-30 μCi of the radiotracers and the animals were sacrificed at specified time points. The uptake of ^68Ga-radiolabeled peptides in the tumors and other major body organs was calculated by γ-counting as described above.

[3] = target: T1, BN/GRP receptor-positive MCF7 human breast cancer cells (Homo sapiens, UniProt P30550); assay: Saturation binding assay on MCF7 cells; conditions: n = 3-5 experiments; for Bmax (apparent number of binding sites per cell): SD < 15%
T1 construct: BN/GRP receptor-positive MDA-MB-231, MCF7, T47D human breast cancer, and PC3 human prostate cancer lines; host or cells: MDA-MB-231, MCF7, T47D (human breast cancer), PC3 (human prostate cancer); intact cells
Method: (§1) The cell binding of ^68Ga-radiolabeled peptides into BN/GRP receptor-positive MDA-MB-231, MCF7, T47D human breast cancer, and PC3 human prostate cancer lines (American Type Culture Collection, Rockville, MD, USA) was performed according to the method described previously. In brief, ∼ 300,000 cells (in 300 μL in low-serum media) were incubated with various amounts of radiopeptides, ranging between 0.1 and 25 nM of peptide (prepared from the serial dilutions of HPLC-purified radiopeptides), in duplicate for 60 min at room temperature. The initial concentrations of ^68Ga-labeled peptides were determined according to a well-established HPLC technique with simultaneous detection by UV absorbance. As the amount of BN peptide in the reaction mixture was too small to be detected by UV absorption at 220 nm, the radioactive peptide chromatograms from the HPLC analysis were compared (with UV chromatograms) with those of known concentrations of the corresponding nonradioactive peptides for the mass determination. Incubation was terminated by dilution with cold saline (300 μL) and the cells were pelleted by centrifugation. The cell pellets was then rapidly washed with cold saline to remove any unbound peptide and centrifuged to collect supernatants. Radioactivity in the cell pellet and the washings was measured in a γ-counter. Non-specific binding was determined in the presence of ~ 200-fold molar excess of unlabeled BN peptide. Specific binding is calculated by subtracting the non-specifically bound radioactivity from that of the total binding. The dissociation constant (Kd) was calculated using a plot of cell bound activity versus the concentration of the radioligand using GraphPad Prism software (GraphPad Software Inc., San Diego, CA, USA).

[4] = target: T2, BN/GRP receptor-positive MDA-MB-231 human breast cancer cells (Homo sapiens, UniProt P30550); assay: Saturation binding assay on MDA-MB-231 cells; conditions: n = 3-5 experiments; for Bmax (apparent number of binding sites per cell): SD < 15%
T2 construct: BN/GRP receptor-positive MDA-MB-231, MCF7, T47D human breast cancer, and PC3 human prostate cancer lines; host or cells: MDA-MB-231, MCF7, T47D (human breast cancer), PC3 (human prostate cancer); intact cells
Method: as §1

[5] = ~300,000 cells, 0.1-25 nM radiopeptide, 60 min, room temperature, mean ± SD
[6] = total radioactivity, %ID excreted in Feces
[7] = total radioactivity, Uptake in Bone
[8] = total radioactivity, Uptake in Intestines (measured without their contents)
[9] = total radioactivity, Uptake in Kidneys
[10] = total radioactivity, Uptake in Pancreas
[11] = total radioactivity, Uptake in Spleen
[12] = total radioactivity, Uptake in Stomach

SMILES: CCCC[C@H](NC(=O)[C@H](Cc1c[nH]cn1)NC(=O)[C@H](CC1CCCCC1)NC(=O)[C@@H](NC(=O)[C@H](C)NC(=O)[C@H](Cc1c[nH]c2ccccc12)NC(=O)[C@H](CCC(N)=O)NC(=O)[C@H](CS)NC(=O)CNC(=O)CNC(=O)CCC(=O)CNC(=O)CN1CCN(CC(=O)O)CCN(CC(=O)O)CCN(CC(=O)O)CC1)C(C)C)C(=O)N[C@@H](CCSC)C(N)=O [^68Ga-DOTA-ALA-BN Tris-, metal not drawn] ({DOTA}-[X1]GGCQWAV[Cha]H[Nle]M-NH2)
- %ID excreted in Feces ([1]; 1 h): 1.03 ± 0.12 %ID
- %ID excreted in Urine ([1]; 1 h): 71.0 ± 12.45 %ID
- Uptake in Blood ([1]; 1 h): 0.88 ± 0.14 %ID/g
- Uptake in Bone ([1]; 1 h): 0.14 ± 0.03 %ID/g
- Uptake in Intestines (measured without their contents) ([1]; 1 h): 0.85 ± 0.13 %ID/g
- Uptake in Kidneys ([1]; 1 h): 3.83 ± 0.67 %ID/g
- Uptake in Liver ([1]; 1 h): 1.78 ± 0.26 %ID/g
- Uptake in Lungs ([1]; 1 h): 0.42 ± 0.10 %ID/g
- Uptake in Pancreas ([1]; 1 h): 0.98 ± 0.13 %ID/g
- Uptake in Spleen ([1]; 1 h): 0.14 ± 0.03 %ID/g
- Uptake in Stomach ([1]; 1 h): 1.44 ± 0.26 %ID/g
- %ID excreted in Feces ([1]; 2 h): 0.77 ± 0.10 %ID
- %ID excreted in Urine ([1]; 2 h): 78.0 ± 15.0 %ID
- Uptake in Blood ([1]; 2 h): 0.27 ± 0.02 %ID/g
- Uptake in Bone ([1]; 2 h): 0.08 ± 0.01 %ID/g
- Uptake in Intestines (measured without their contents) ([1]; 2 h): 0.64 ± 0.14 %ID/g
- Uptake in Kidneys ([1]; 2 h): 2.76 ± 0.49 %ID/g
- Uptake in Liver ([1]; 2 h): 0.86 ± 0.17 %ID/g
- Uptake in Lungs ([1]; 2 h): 0.19 ± 0.03 %ID/g
- Uptake in Pancreas ([1]; 2 h): 0.82 ± 0.12 %ID/g
- Uptake in Spleen ([1]; 2 h): 0.10 ± 0.02 %ID/g
- Uptake in Stomach ([1]; 2 h): 0.53 ± 0.09 %ID/g
- Radioactivity in Urine + bladder ([2]; 1 h): 54.0 ± 5.78 % injected dose per tissue
- Uptake in Blood ([2]; 1 h): 0.85 ± 0.15 % ID/g
- Uptake in Intestines (measured without their contents) ([2]; 1 h): 1.05 ± 0.18 % ID/g
- Uptake in Kidneys ([2]; 1 h): 5.12 ± 0.69 % ID/g
- Uptake in Liver ([2]; 1 h): 2.31 ± 0.38 % ID/g
- Uptake in Lungs ([2]; 1 h): 2.35 ± 0.33 % ID/g
- Uptake in Muscle ([2]; 1 h): 0.39 ± 0.03 % ID/g
- Uptake in Pancreas ([2]; 1 h): 1.19 ± 0.15 % ID/g
- Uptake in Spleen ([2]; 1 h): 0.44 ± 0.06 % ID/g
- Uptake in Stomach ([2]; 1 h): 0.83 ± 0.21 % ID/g
- Radioactivity in Urine + bladder ([2]; 2 h): 61.0 ± 7.10 % injected dose per tissue
- Uptake in Blood ([2]; 2 h): 0.30 ± 0.04 % ID/g
- Uptake in Intestines (measured without their contents) ([2]; 2 h): 0.73 ± 0.13 % ID/g
- Uptake in Kidneys ([2]; 2 h): 3.56 ± 0.50 % ID/g
- Uptake in Liver ([2]; 2 h): 1.50 ± 0.27 % ID/g
- Uptake in Lungs ([2]; 2 h): 0.70 ± 0.16 % ID/g
- Uptake in Muscle ([2]; 2 h): 0.23 ± 0.02 % ID/g
- Uptake in Pancreas ([2]; 2 h): 0.71 ± 0.10 % ID/g
- Uptake in Spleen ([2]; 2 h): 0.35 ± 0.03 % ID/g
- Uptake in Stomach ([2]; 2 h): 0.37 ± 0.07 % ID/g
- Uptake in Tumor ([2]; 1 h p.i.): 1.78 ± 0.40 % ID/g
- Uptake in Tumor ([2]; 2 h p.i.): 1.25 ± 0.21 % ID/g
- Bmax (apparent number of binding sites per cell) [3]: 1.05 × 10^5 sites/cell
- Kd [3, 5]: 12.3 ± 1.94 nM
- Bmax (apparent number of binding sites per cell) [4]: 1.12 × 10^5 sites/cell
- Kd [4, 5]: 14.7 ± 2.24 nM

SMILES: CCCC[C@H](NC(=O)[C@H](Cc1c[nH]cn1)NC(=O)[C@H](CC1CCCCC1)NC(=O)[C@@H](NC(=O)[C@H](C)NC(=O)[C@H](Cc1c[nH]c2ccccc12)NC(=O)[C@H](CCC(N)=O)NC(=O)[C@H](CS)NC(=O)CNC(=O)CNC(=O)c1ccc(NC(=O)CN2CCN(CC(=O)O)CCN(CC(=O)O)CCN(CC(=O)O)CC2)cc1)C(C)C)C(=O)N[C@@H](CCSC)C(N)=O [^68Ga-DOTA-Abz-BN Cyclen, metal not drawn] ({DOTA-4Abz}-GGCQWAV[Cha]H[Nle]M-NH2)
- %ID excreted in Urine ([1]; 1 h): 70.0 ± 8.60 %ID
- Uptake in Liver ([1]; 1 h): 0.68 ± 0.16 %ID/g
- Uptake in Lungs ([1]; 1 h): 0.21 ± 0.05 %ID/g
- dose excreted at 1 h [1, 6]: 1.01 ± 0.2%
- dose excreted at 2 h [1, 6]: 0.88 ± 0.12%
- dose excreted at 2 h ([1]; total radioactivity, %ID excreted in Urine): 62 ± 9.54%
- tissue uptake at 1 h ([1]; total radioactivity, Uptake in Blood): 0.4 ± 0.11 %ID/g
- tissue uptake at 1 h [1, 7]: 0.13 ± 0.04 %ID/g
- tissue uptake at 2 h [1, 7]: 0.09 ± 0.01 %ID/g
- tissue uptake at 1 h [1, 8]: 0.85 ± 0.17 %ID/g
- tissue uptake at 2 h [1, 8]: 0.53 ± 0.14 %ID/g
- tissue uptake at 1 h [1, 9]: 2.96 ± 0.3 %ID/g
- tissue uptake at 2 h [1, 9]: 1.88 ± 0.25 %ID/g
- tissue uptake at 2 h ([1]; total radioactivity, Uptake in Liver): 0.5 ± 0.07 %ID/g
- tissue uptake at 1 h [1, 10]: 1.07 ± 0.13 %ID/g
- tissue uptake at 2 h [1, 10]: 0.88 ± 0.11 %ID/g
- tissue uptake at 1 h [1, 11]: 0.12 ± 0.02 %ID/g
- tissue uptake at 2 h [1, 11]: 0.07 ± 0.01 %ID/g
- tissue uptake at 1 h [1, 12]: 1.69 ± 0.24 %ID/g
- tissue uptake at 2 h [1, 12]: 0.45 ± 0.1 %ID/g
- Uptake in Tumor ([2]; 1 h p.i.): 1.84 ± 0.40 % ID/g
- Uptake in Tumor ([2]; 2 h p.i.): 1.30 ± 0.37 % ID/g
- Bmax (apparent number of binding sites per cell) [3]: 5.12 × 10^5 sites/cell
- Bmax (apparent number of binding sites per cell) [4]: 6.09 × 10^5 sites/cell
